Test results: article PMC8246641
Ends that are not written are not given here.

Molecular target: taxol-stabilized microtubules (MTs) (UniProt P02550)
Test: co-sedimentation

Kd: 996 nM
B1: GST-ABS6^329–387 (DUF4005 domain of ABS6/AtIQD16, N-terminal GST tag) (domain or fragment)
chain: {GST}-RSASPRIPCSPSSMQPNYMSATESAKAKARTQSTPRRRPMTAKKRLCYAEEESLRSPSF
modifications: cysteine pairing not given here
